Where a chain is given by its changes, count along the chain named. In names and notes the source's numbering stands.
Key:
[1] = test system: SRD5A2 (steroid 5α-reductase type II); assay: SRD5A2 activity in extracts of transfected cos cells: conversion of [14C] testosterone to [14C] dihydrotestosterone with NADPH; assay type: biochemical, human; conditions: for Vmax for testosterone to dihydrotestosterone conversion: normalized protein extracts of transfected cos cells, 37° C., cofactor NADPH
[2] = molecular target: T1, SRD5A2 (steroid 5α-reductase type II) (Homo sapiens, UniProt P31213, A49T/L89V); assay: as above; assay type: biochemical; conditions: substrate testosterone
T1 construct: expressed in transfected cells; host or cells: cos cells (electroporated; sonicated cell extracts)
T1 sequence (P31213 1-254 A49T/L89V): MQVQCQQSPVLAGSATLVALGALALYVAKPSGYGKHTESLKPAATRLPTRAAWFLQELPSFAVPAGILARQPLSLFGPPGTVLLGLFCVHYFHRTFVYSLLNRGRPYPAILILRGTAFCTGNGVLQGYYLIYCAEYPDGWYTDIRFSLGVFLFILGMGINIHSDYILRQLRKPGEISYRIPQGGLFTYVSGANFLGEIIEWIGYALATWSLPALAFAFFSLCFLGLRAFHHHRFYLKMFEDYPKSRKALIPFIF

B1: normal enzyme: normal (wild type) steroid 5α-reductase type II from the SRD5A2 construct expressed in cos cells (protein, UniProt P31213 1-254, looked up)
3-oxo-5-alpha-steroid …: T1 sequence (P31213 1-254 A49T/L89V) with T49A, V89L
[1]
  Vmax for testosterone to dihydrotestosterone conversion: 1.3 nmol/min/mg
  testosterone concentration at which the enzyme is substrate inhibited: 1.5 µM

B2: A49T enzyme: steroid 5α-reductase type II encoded by SRD5A2 cDNA with the A49T missense mutation, expressed in cos cells (protein, UniProt P31213 1-254, looked up, variant A49T)
3-oxo-5-alpha-steroid …: T1 sequence (P31213 1-254 A49T/L89V) with V89L
[2]
  apparent KM for testosterone compared to the normal enzyme: higher KM for testosterone
[1]
  Vmax for testosterone to dihydrotestosterone conversion: 3.8 nmol/min/mg
  testosterone concentration at which the enzyme is substrate inhibited: 6 µM

Reference: patent US6395479B1, “Androgen-metabolic gene mutations and prostate cancer risk” (University of Southern California, priority 1998, dated 2002)
